According to patent US20130129739A1 (Bayer, published 2013):

T1: extracellular domain of human PRLR (monomeric, soluble) (human, UniProt P16471 25-234)
T1 construct: also called ECD-PRLR; ECD of PRLR
T1 sequence: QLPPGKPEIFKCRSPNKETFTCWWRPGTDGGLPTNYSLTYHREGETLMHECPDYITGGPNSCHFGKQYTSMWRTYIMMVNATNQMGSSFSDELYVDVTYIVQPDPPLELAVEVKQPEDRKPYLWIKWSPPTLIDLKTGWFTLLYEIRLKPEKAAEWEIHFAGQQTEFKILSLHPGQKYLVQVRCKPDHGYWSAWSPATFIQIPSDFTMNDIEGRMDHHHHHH


Target: T1, extracellular domain of human PRLR …
Experiment: ELISA: plate coated with human PRLR extracellular domain, Fab-containing E. coli supernatant, anti-flag-HRP, Amplex Red
Protocol: 96 well microtiter plates were coated with 1 μg per milliliter of human PRLR. Plates were incubated over night at 4° C. After blocking with PBS buffer containing 3% bovine serum albumin, normalized E. coli-derived supernatants containing the Fab variants were added. Detection of formed complexes occurred via the addition of an anti-flag antibody (Sigma, A8592) labeled with horseradish peroxidase.

Row | Binder | binding result
1 | 005-C04-L2-1-16-4 (Fab, V domains shown, Maturated 005-C04 variant; Fab in E. coli supernatant, flag-detected) VH: EVQLLESGGGLVQPGGSLRLSCAASGFTFSSYWNHWVRQAPGKGLEWVSDMSRLSSYTNYADSVKGRFTISRDNSKNTLYLQMNSLRAEDTAVYYCARGLDARRMDYWGQGTLVTVTS VL: QSVLTQPPSASGTPGQRVTISCTGSSSNIGAGYVVHWYQQLPGTAPKLLIYRNNWRPSGVPDRFSGSKSGTSASLAISGLRSEDEADYYCAAWDDSLNGWLFGGGTKLTVLG | binds
2 | 005-C04-48-1 (Fab, V domains shown, Maturated 005-C04 variant; Fab in E. coli supernatant, flag-detected) VH: EVQLLESGGGLVQPGGSLRLSCAASGFTFSSYWNHWVRQAPGKGLEWVSDISRASSYTNYADSVKGRFTISRDNSKNTLYLQMNSLRAEDTAVYYCARGLDARRMDYWGQGTLVTVTS VL: QSVLTQPPSASGTPGQRVTISCTGSSSNIGYGYVVHWYQQLPGTAPKLLIYRNNQRPSGVPDRFSGSKSGTSASLAISGLRSEDEADYYCAAWDDSLNGWLFGGGTKLTVLG | binds
3 | 005-C04-L2-1-25-5 (Fab, V domains shown, Maturated 005-C04 variant; Fab in E. coli supernatant, flag-detected) VH: EVQLLESGGGLVQPGGSLRLSCAASGFTFSSYWNHWVRQAPGKGLEWVSDMASLSPYTGYADSVKGRFTISRDNSKNTLYLQMNSLRAEDTAVYYCARGLDARRMDYWGQGTLVTVTS VL: QSVLTQPPSASGTPGQRVTISCTGSSSNIGAGYVVHWYQQLPGTAPKLLIYRNNQRQSGVPDRFSGSKSGTSASLAISGLRSEDEADYYCAAWDDSLNGWLFGGGTKLTVLG | binds
4 | 005-C04-L2-1-40-2 (Fab, V domains shown, Maturated 005-C04 variant; Fab in E. coli supernatant, flag-detected) VH: EVQLLESGGGLVQPGGSLRLSCAASGFTFSSYWNHWVRQAPGKGLEWVSDISRASPYTGYADSVKGRFTISRDNSKNTLYLQMNSLRAEDTAVYYCARGLDARRMDYWGQGTLVTVTS VL: QSVLTQPPSASGTPGQRVTISCTGSSSNIGAGYVVHWYQQLPGTAPKLLIYRNNQRQSGVPDRFSGSKSGTSASLAISGLRSEDEADYYCAAWDDSLNGWLFGGGTKLTVLG | binds
5 | 005-C04-L2-1-47-0 (Fab, V domains shown, Maturated 005-C04 variant; Fab in E. coli supernatant, flag-detected) VH: EVQLLESGGGLVQPGGSLRLSCAASGFTFSSYWNHWVRQAPGKGLEWVSDISRLSPYTNYADSVKGRFTISRDNSKNTLYLQMNSLRAEDTAVYYCARGLDARRMDYWGQGTLVTVTS VL: QSVLTQPPSASGTPGQRVTISCTGSSSNIGAGYVVHWYQQLPGTAPKLLIYRNNWRPSGVPDRFSGSKSGTSASLAISGLRSEDEADYYCAAWDDSLNGWLFGGGTKLTVLG | binds
6 | 005-C04-L2-1-42-0 (Fab, V domains shown, Maturated 005-C04 variant; Fab in E. coli supernatant, flag-detected) VH: EVQLLESGGGLVQPGGSLRLSCAASGFTFSSYWNHWVRQAPGKGLEWVSDIARASSYTGYADSVKGRFTISRDNSKNTLYLQMNSLRAEDTAVYYCARGLDARRMDYWGQGTLVTVTS VL: QSVLTQPPSASGTPGQRVTISCTGSSSNIGAGYVVHWYQQLPGTAPKLLIYRNNWRQSGVPDRFSGSKSGTSASLAISGLRSEDEADYYCAAWDDSLNGWLFGGGTKLTVLG | binds
7 | 005-C04-L2-1-31-7 (Fab, V domains shown, Maturated 005-C04 variant; Fab in E. coli supernatant, flag-detected) VH: EVQLLESGGGLVQPGGSLRLSCAASGFTFSSYWWHWVRQAPGKGLEWVSDIARLSPYTNYADSVKGRFTISRDNSKNTLYLQMNSLRAEDTAVYYCARGLDARRMDYWGQGTLVTVTS VL: QSVLTQPPSASGTPGQRVTISCTGSSSNIGAGYVVHWYQQLPGTAPKLLIYRNNWRQSGVPDRFSGSKSGTSASLAISGLRSEDEADYYCAAWDDSLNGWLFGGGTKLTVLG | binds
8 | 005-C04-L2-1-33-7 (Fab, V domains shown, Maturated 005-C04 variant; Fab in E. coli supernatant, flag-detected) VH: EVQLLESGGGLVQPGGSLRLSCAASGFTFSSYWNHWVRQAPGKGLEWVSDIARLSPYTGYADSVKGRFTISRDNSKNTLYLQMNSLRAEDTAVYYCARGLDARRMDYWGQGTLVTVTS VL: QSVLTQPPSASGTPGQRVTISCTGSSSNIGAGYVVHWYQQLPGTAPKLLIYRNNVRQSGVPDRFSGSKSGTSASLAISGLRSEDEADYYCAAWDDSLNGWLFGGGTKLTVLG | binds
9 | 005-C04-L2-1-38-3 (Fab, V domains shown, Maturated 005-C04 variant; Fab in E. coli supernatant, flag-detected) VH: EVQLLESGGGLVQPGGSLRLSCAASGFTFSSYWNHWVRQAPGKGLEWVSDISRLSSYTNYADSVKGRFTISRDNSKNTLYLQMNSLRAEDTAVYYCARGLDARRMDYWGQGTLVTVTS VL: QSVLTQPPSASGTPGQRVTISCTGSSSNIGYGYVVHWYQQLPGTAPKLLIYRNNWRPSGVPDRFSGSKSGTSASLAISGLRSEDEADYYCAAWDDSLNGWLFGGGTKLTVLG | binds
10 | 005-C04-L2-1-23-7 (Fab, V domains shown, Maturated 005-C04 variant; Fab in E. coli supernatant, flag-detected) VH: EVQLLESGGGLVQPGGSLRLSCAASGFTFSSYWNHWVRQAPGKGLEWVSDISRASPYTGYADSVKGRFTISRDNSKNTLYLQMNSLRAEDTAVYYCARGLDARRMDYWGQGTLVTVTS VL: QSVLTQPPSASGTPGQRVTISCTGSSSNIGAGYVVHWYQQLPGTAPKLLIYRNNWRPSGVPDRFSGSKSGTSASLAISGLRSEDEADYYCAAWDDSLNGWLFGGGTKLTVLG | binds
11 | 005-C04-L2-1-28-7 (Fab, V domains shown, Maturated 005-C04 variant; Fab in E. coli supernatant, flag-detected) VH: EVQLLESGGGLVQPGGSLRLSCAASGFTFSSYWNHWVRQAPGKGLEWVSDMSSLSSYTGYADSVKGRFTISRDNSKNTLYLQMNSLRAEDTAVYYCARGLDARRMDYWGQGTLVTVTS VL: QSVLTQPPSASGTPGQRVTISCTGSSSNIGAGYVVHWYQQLPGTAPKLLIYRNNVRQSGVPDRFSGSKSGTSASLAISGLRSEDEADYYCAAWDDSLNGWLFGGGTKLTVLG | binds

Now from value to binder:

Row | binding result | Binder
12 | binds | 005-C04-L2-1-20-1 (Fab, V domains shown, Maturated 005-C04 variant; Fab in E. coli supernatant, flag-detected) VH: EVQLLESGGGLVQPGGSLRLSCAASGFTFSSYWWHWVRQAPGKGLEWVSDIARASSYTNYADSVKGRFTISRDNSKNTLYLQMNSLRAEDTAVYYCARGLDARRMDYWGQGTLVTVTS VL: QSVLTQPPSASGTPGQRVTISCTGSSSNIGYGYVVHWYQQLPGTAPKLLIYRNNWRPSGVPDRFSGSKSGTSASLAISGLRSEDEADYYCAAWDDSLNGWLFGGGTKLTVLG
13 | binds | 005-C04-L2-1-20-0 (Fab, V domains shown, Maturated 005-C04 variant; Fab in E. coli supernatant, flag-detected) VH: EVQLLESGGGLVQPGGSLRLSCAASGFTFSSYWWHWVRQAPGKGLEWVSDMSRLSSYTNYADSVKGRFTISRDNSKNTLYLQMNSLRAEDTAVYYCARGLDARRMDYWGQGTLVTVTS VL: QSVLTQPPSASGTPGQRVTISCTGSSSNIGAGYVVHWYQQLPGTAPKLLIYRNNVRQSGVPDRFSGSKSGTSASLAISGLRSEDEADYYCAAWDDSLNGWLFGGGTKLTVLG
14 | binds | 005-C04-L2-1-48-3 (Fab, V domains shown, Maturated 005-C04 variant; Fab in E. coli supernatant, flag-detected) VH: EVQLLESGGGLVQPGGSLRLSCAASGFTFSSYWNHWVRQAPGKGLEWVSDISRASPYTNYADSVKGRFTISRDNSKNTLYLQMNSLRAEDTAVYYCARGLDARRMDYWGQGTLVTVTS VL: QSVLTQPPSASGTPGQRVTISCTGSSSNIGAGYVVHWYQQLPGTAPKLLIYRNNQRQSGVPDRFSGSKSGTSASLAISGLRSEDEADYYCAAWDDSLNGWLFGGGTKLTVLG
15 | binds | 005-C04-L2-1-25-4 (Fab, V domains shown, Maturated 005-C04 variant; Fab in E. coli supernatant, flag-detected) VH: EVQLLESGGGLVQPGGSLRLSCAASGFTFSSYWNHWVRQAPGKGLEWVSDISRLSPYTNYADSVKGRFTISRDNSKNTLYLQMNSLRAEDTAVYYCARGLDARRMDYWGQGTLVTVTS VL: QSVLTQPPSASGTPGQRVTISCTGSSSNIGAGYVVHWYQQLPGTAPKLLIYRNNQRQSGVPDRFSGSKSGTSASLAISGLRSEDEADYYCAAWDDSLNGWLFGGGTKLTVLG
16 | binds | 005-C04-L2-1-36-6 (Fab, V domains shown, Maturated 005-C04 variant; Fab in E. coli supernatant, flag-detected) VH: EVQLLESGGGLVQPGGSLRLSCAASGFTFSSYWNHWVRQAPGKGLEWVSDMASLSSYTNYADSVKGRFTISRDNSKNTLYLQMNSLRAEDTAVYYCARGLDARRMDYWGQGTLVTVTS VL: QSVLTQPPSASGTPGQRVTISCTGSSSNIGAGYVVHWYQQLPGTAPKLLIYRNNWRQSGVPDRFSGSKSGTSASLAISGLRSEDEADYYCAAWDDSLNGWLFGGGTKLTVLG
17 | binds | 005-C04-L2-1-40-7 (Fab, V domains shown, Maturated 005-C04 variant; Fab in E. coli supernatant, flag-detected) VH: EVQLLESGGGLVQPGGSLRLSCAASGFTFSSYWNHWVRQAPGKGLEWVSDIASASSYTGYADSVKGRFTISRDNSKNTLYLQMNSLRAEDTAVYYCARGLDARRMDYWGQGTLVTVTS VL: QSVLTQPPSASGTPGQRVTISCTGSSSNIGAGYVVHWYQQLPGTAPKLLIYRNNWRQSGVPDRFSGSKSGTSASLAISGLRSEDEADYYCAAWDDSLNGWLFGGGTKLTVLG
18 | binds | 005-C04-L2-1-25-7 (Fab, V domains shown, Maturated 005-C04 variant; Fab in E. coli supernatant, flag-detected) VH: EVQLLESGGGLVQPGGSLRLSCAASGFTFSSYWWHWVRQAPGKGLEWVSDIARASSYTNYADSVKGRFTISRDNSKNTLYLQMNSLRAEDTAVYYCARGLDARRMDYWGQGTLVTVTS VL: QSVLTQPPSASGTPGQRVTISCTGSSSNIGYGYVVHWYQQLPGTAPKLLIYRNNWRPSGVPDRFSGSKSGTSASLAISGLRSEDEADYYCAAWDDSLNGWLFGGGTKLTVLG
19 | binds | 005-C04-L2-1-25-0 (Fab, V domains shown, Maturated 005-C04 variant; Fab in E. coli supernatant, flag-detected) VH: EVQLLESGGGLVQPGGSLRLSCAASGFTFSSYWWHWVRQAPGKGLEWVSDIARASSYTNYADSVKGRFTISRDNSKNTLYLQMNSLRAEDTAVYYCARGLDARRMDYWGQGTLVTVTS VL: QSVLTQPPSASGTPGQRVTISCTGSSSNIGAGYVVHWYQQLPGTAPKLLIYRNNWRPSGVPDRFSGSKSGTSASLAISGLRSEDEADYYCAAWDDSLNGWLFGGGTKLTVLG
20 | binds | 005-C04-L2-1-21-7 (Fab, V domains shown, Maturated 005-C04 variant; Fab in E. coli supernatant, flag-detected) VH: EVQLLESGGGLVQPGGSLRLSCAASGFTFSSYWWHWVRQAPGKGLEWVSDMSRLSSYTNYADSVKGRFTISRDNSKNTLYLQMNSLRAEDTAVYYCARGLDARRMDYWGQGTLVTVTS VL: QSVLTQPPSASGTPGQRVTISCTGSSSNIGAGYVVHWYQQLPGTAPKLLIYRNNQRQSGVPDRFSGSKSGTSASLAISGLRSEDEADYYCAAWDDSLNGWLFGGGTKLTVLG
